# Data taken from the nanobody polyreactivity screen of Harvey et al. (2022).
# Assay: yeast display, Sf9 membrane polyspecificity reagent, FACS + sequencing; frameworks hold sequencing errors
# Method in brief: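 Nanobodies from a synthetic yeast display library (Saccharomyces cerevisiae BJ5465), induced 36–48 hours with galactose, were stained 1 hour at 4 °C with 10% biotinylated, detergent-solubilized Sf9 membrane reagent, enriched on streptavidin microbeads, then FACS-sorted. Anti-HA (expression) and streptavidin (reagent binding) fluorescence set low and high (top ~1%) gates. Polyreactivity labels come from the gate of origin. Genes were colony-PCR amplified, MiSeq 2 × 250 sequenced and filtered by CDR length.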
row,Sequence,polyreactivity (PSR sort gate)
1,QVQLLESGGGLVQAGGSLRLSCAASGYIFGWYTMGWYRQAPGKERELVAAISYSGGDTYYADSVKGRFTNTRDNAKNTVYLQMNSLKPEDTAVYYCAAVDPASPLGEYWGQGTQVTVSS,low polyreactivity
2,QVQLLESGGGLVQAGGSLRLSCAASGYIFLRNAMGWYRQAPGKERELVAAIRRTGGSTYYADSVKGRFTISRDNAKNTVYLQMNSLKPEDTAVYYCAKRSYTGYEYWGQGTQVTVSS,low polyreactivity
3,QVQLLESGGGLVQAGGSLRLSCAATRRIFEYNGMGWYRQAPGKDSELVAAIEWNGSPTYADSVKGRFTIARDNAKNTVYLLMNSLKPEDTSVYYCAKAYPGKAPKYDYWGQGTQVTVSS,low polyreactivity
4,QVQLLESGGGLVQAGGSLRLSCADSGSIFPKNAIGWYRQAPGKERELVAGITSRTGRTYYADSVKGRFTISRDNSKNTVYLQMNRLKPEDTAVYYCAARIGGGPVKYDYWGQGTQVTVSS,high polyreactivity
5,QVQLLESGGGLVQAGGSLRLSCAHSGLIIWANAMGWYRQAPGKESEMVAAISGSGGRTYYADSVKGRFSISRDNAKNTVYLEMNSLIPEDTAVYFCAAKVSAWKKKSEMNYWGQGTQVTVSS,high polyreactivity
6,QVQLLESGGGLVQAGGSLRLSCDASGITFGPNAMGWYRQAPGKERELVATISSSGGSTYYSDSVKGRFTISRDNAKNTVLLQMKSLKPEDTAVYYCNSGFDPYLGAYDYWGQGTQVTVSS,low polyreactivity
7,QVQLLESGGGLVQAGGSLRLTCAASGSTFDYYAMGWYRQAPGKERELVATISYNDDTTYYADSVKGRFTISRDNAKNTVYLQMNSLKPEDTAVYYCNAEVYGGRYYVDMYYWGQGTQVTVSS,low polyreactivity
8,QVQLLESGGGLVQAGGSLSLSCAASGSTFKHYAMGWYRQAPGKERELVAAISSRGGSTHYADSVKGRFTISRDNAKNTVYLQMNSLKREDTAVYYCARDTDPQSSRSSDYDYWGQGTQVSVSS,low polyreactivity
9,QVQLLESGGGLVQAGGSRRLSCAASGRTFIFNAMGWYRQAPGKETELVAAISSGGGTNYADSEKGRFTISRDNAKNTVYLQMNSLKPEDTAVYYCARGSYKYRHSYDYWGQGTEVTVSS,low polyreactivity
10,QVQLLESGGGLVQAGGTLRLSCAASGSIIGRNAMGWYRQAPGKERELVAAITWRTGSTFYADSVKGRFTISRDNAKNTVYLQMNSLKPEDTAVYYCNAAGPAYSYYHWLWGDYNSWRQGTQVTVSS,low polyreactivity
11,QVQLLESGGGLVQAGGTLRLSCAASGYTFTNNAMGWYRQAPGKERELVAGITRGGSTNYADSVKGRFTISRDNAKNTVSLQMNSLKPEDTAVYYWAADLRPNSQNGLLEDEMDYWGQGTQVTVSS,low polyreactivity
12,QVQLLESGGGLVQARGSLRISCAASGLTFFFYAMGWYRQAPGKERELVAAISFSGGSTYADSVKGRFTISRDNAKNTVYLQMNSLKPEDTAVYYCNAPPQFATFTYANWRQGTQVTVSS,low polyreactivity
13,QVQLLESGGGLVQPGGSLRLSCAASGSIFGLNAMGLYRQEPGKETELVAAISGGSTNYADSVKGRFTISRDNAKNTVYFQMISLKPEDTAVYYCAAPRTKYLSNYGFWGEGTQVTVSS,high polyreactivity
14,QVQLLESGGGLVQSGGSLRLSCADSGNIFVTYAMGWYRQAPGKESELVAGITSSDDSTYYADSVKVRFTISLDNAKNTVYLQMNSLKPEDTAVYYCATYYWEVGIGQFYYWGQGTQVTVSS,low polyreactivity
15,QVQLLESGGGVVQAGGSLRLSCASSGFTFRINAMGWYRPAPGKERELVAANSGRGGSTYYADSVKGRFTISRDYAKNTVYLQMNSLKPEDTAVYYCAAKGSSSLSYYYWGQGTQVTVSS,high polyreactivity
16,QVQLLESGGVLVQAGGSLLLSCAASGSIFSPYAMGRYRQAPGKERELVATISTIDGSTTYADSVKGRFTISRDYAKNTVYLQMKSLKPEDTAVYYCNAEYAYFKLWANPYDMDYWGQGTQVTVSS,low polyreactivity
17,QVQLLESGRGLVQAGGSLRLSCAPSGSIFSGMVMGWYIQAPGKERELVAAISSRGGNTYYADSVKGRFTISRDNAKNTVYLQMNSLITEDTAVYYCNKVKFNWYEWGQGTQVSVSS,high polyreactivity
18,QVQLLESGVGLDQAGGSLRLSCAASGSTFNRNAMGWYRQAPGKERELVAAITYSGGSTYYADSVKGRFTISRDNAKNTVYLQMNSLNPEDTAVYYCNAPYAGMGYWGQGTQVTVSS,low polyreactivity
19,QVQLLETGRGLVQAGGSLRISCAASGYTFGVYVMGWYRQAPGQERELVAAISGSTYYADSVNGRFKISRDNAKNTVYLQMNSLKPEDTAVYYCAAESFFFSPRTREIFDYWGQGTQVTVSS,low polyreactivity
20,QVQLQDSGGGLVQAGGSLGLSCAASGYIFGSGSMGWFRQAPGKERELVATINNGSSTYYADSVKGRFTISRDNSKNTVSLQMNSLKPEDTAVYYCAVYLYRLTFFYYWGQGNQVTVSS,high polyreactivity
21,QVQLQDSGGGLVQAGGSLRLSCAASGTISYRYRMGWYRQAPRKEVELVAGIRVGSITYDADSVKGRFTISRDNAKNTVYLQMNSLKPEDIAVYYCAVYQKSYRFFPYWGQGTQVTVSS,high polyreactivity
22,QVQLQDSGGVQAGGSLRLSCAASGYISRSDVMGWYRQAPGKERELVATIINGTITYYADSVKGRFPISRDNAKNTVYLQMNSLNPEDTAVQYCAVVQSDTDSLYYWGQGTQVTVSS,low polyreactivity

row,Sequence,polyreactivity (PSR sort gate)
1,QVQLQDSVGCLVQAGGSLRLSCAASGSISIYGYMGWYRQAPGNERELVAAITAGGSTYYADSVKGRFTISRDNAKNTVYLLMKSLKPEDTAVYYCAPYEQRVYDLHYWGQGTQVTVSS,high polyreactivity
2,QVQLQECGGGLVQAGGSLRLSCAASGNIFDAYIMGWYRQAPGKERELVASVTDGGSTNYADSVKGRFTISRDNAKNTVYLQMNSLKPEDTAVYYCAAIVYPDILTYFDYDYDYFYWGQGTQVTVGS,low polyreactivity
3,QVQLQECGGGLVQAGGSLRLSCAASVNIFDADIMGSYRQAPGKERELVASVTDGGSTNYADSVKGRFTISRDNAKNTVYLQMNSLKPEDTAVYYCAGIVYPDILTFFDYDYDYFYWGQGTQVTVGS,low polyreactivity
4,QVQLQECGGGLVQAGGSLRLSCAASVNIFDADIMGWYRQAPGKERELVASVTDGGSTNYADSVKGRFTISRDNAKNTVYLQMNSLKPEDTAVYYCAAIVYPDILTYFEYDYDYFYWGQGTQVTVGS,low polyreactivity
5,QVQLQEIGGGLVQAGGSLRLRCAASRNISGSSDLGWYHQAPGKEREFVASITSGGTTYYADSVKGRFTISRDNAKKTVYLQMNSLKAEDTAVYYCAVGDPADAEFGYWGQGTQVTVSS,low polyreactivity
6,QVQLQEIGGGLVQAGGSLRLSCAASGYIIPYYSMRWYRQAPGKERGLVACIAAGTTTNFADCVKGRFTISRDNAKNTVYLQMNSLKPEDAAVYFCAALNAFKTGDWYWGQGTQVTVSS,low polyreactivity
7,QVQLQERGGGLVQAGGSLLSCAASGTISYYREMGWYRQAPGKERELVAGIGVGTITYYADSVKGRFTISRDNAKNTVYLQMNRLKPEDTAVYFCAAHIDGNDSHAYWGQGTQVTVSS,low polyreactivity
8,QVQLQERGGGLVQAGGSLRMSCAASGSIFVSVTMGWYRQAPGKERELVASIGRGSTTNHADSVKGLFTISRDNAKNIVYLLMNSLKPEDTAVYYCAALESYGKYHGYWGQGTQVTVSS,low polyreactivity
9,QVQLQERGGGLVQAGGSLRQSCAAIGYIFPYYSMGWYRQATGKERGLVACIAAGTTTNYADSVKGRFTISRDNAINTVYLQMNSLKPEDAAVYYCAALNAFKTGHWYWGQGTQVTVSS,low polyreactivity
10,QVQLQESAGGLEQAGGSLRLSCAASAYISDIGTKGWYRQAPRKEREFVATIVVGSTTNYADSVKGRFTISRDNAKNTVYLQPESGRYRGVFLRGWLLPVGKFTYWGQGTQETVSS,low polyreactivity
11,QVQLQESAGGLVQAGGSLRLRCSASGYISCDASMGSYRQAPGKERELAASITKGSSTNYADSVKGRFTIRDNAKNTVYLQMNSLKPEDTAVCYCAVTYPYWGDYTYWGQGTQVTVSS,low polyreactivity
12,QVQLQESAGGRQPAPELRGERLYFWLLLMGWYRQAPGEERELVAGINDGASTNYADSVKGRFTISRDNARNTVYLKMNSLKPGDTAVYYCAVWQPVLIWFYYWGQGTQVTVSS,high polyreactivity
13,QVQLQESCGGLVQEAGSLRLSCAASGNISPPADMGWYRQAPGKQRELVASIGTGGTTNYADSEKGRFTISRDNAKNTVYLQMNSLKPEDSAVYYCNVDIGVYAYESDYWGQGTQVTVSS,low polyreactivity
14,QVQLQESGAALVQAGGSLRLSCAASGNIFVDAYMGWYRQAPGKERELVATIAPADSVKGRFTISRDNAKNTVYLQMNRLKPEDTAVYYCAAFTGYSSVFGFWGQGIQVTVSS,high polyreactivity
15,QVQLQESGAGLVKAGGSLRLSCAASGNISNHNDMGWYRQAPGKEREFVAGITAGGITNYADSVKRRFTISRDNAKNSVYLQMKSLKPEDTAVYYCAAYPDYDKSYGYWGQGTQATVSS,low polyreactivity
16,QVQLQESGAGLVQAGGSLRLICAASGNIFRGDYVGWYHQAPGKEREFVASITGGGNTNFADSVKGRYSISRDNAKKTVYLKMNSLKPEDTAVYYCAVFDAWLARLIFWGQGSQVTVSS,high polyreactivity
17,QVQLQESGAGLVQAGVSLRLSCAASGYISTFSSEMGWYRQAPGKDRELVASIAPGCTTSYADSVKGRFTISRDKAKNTVFLQMNSLKPEDTAVYYCAVDYTVPASFGYWGQGTQVTVSS,high polyreactivity
18,QVQLQESGGALVQAGGSLRLSCAASGNIYDADIMGWYRQAPGKERELVTSITDGGSTNYADSVKGRFTISRDNAKNTVYLQMNSLKPQDTAVYYCAAIAYPDIPTSFDYNSDYSYWGQGTQVTVSS,low polyreactivity
19,QVQLQESGGALVQAGGSLRLSCAASGTISDRAGMGWYRQAPAKNANVATIDRGTNTNYADSVKGRFTISRDNAKNTVYLQMNSLKPEDTAVYNCAADGRYYIYLDYWGQGTQVTVSS,low polyreactivity
20,QVQLQESGGCLVQAGGSLRKSCAASGNIFDADIMGWYRQAPGKERELVASITDGRRTNYADSVKGRYTISRDSENNTVYLQLNSLKAEDTAVYYCAAIAYPVVPTYFDYDSDFFHWGQGTQVTVSS,high polyreactivity
21,QVQLQESGGDLEQAGGSLRLSCTASGTISDVRVMGWSRQAPGKERELVATISYVTITYYADSVKGRFTISRDSEKHRVSADDEPETGRYRGVLFRYYWGLGTQVTVSS,low polyreactivity
